Experimental findings from patent publication US12091776B2, “Protease activity profiling via programmable phage display of comprehensive proteome-scale peptide libraries” (THE JOHNS HOPKINS UNIVERSITY, priority 2019, dated 2024) are described below.

First the molecules themselves.
T1: Caspase-1 (Homo sapiens, UniProt P29466)
T1 construct: purchased BioVision
T1 sequence (P29466 120-297 limits assumed): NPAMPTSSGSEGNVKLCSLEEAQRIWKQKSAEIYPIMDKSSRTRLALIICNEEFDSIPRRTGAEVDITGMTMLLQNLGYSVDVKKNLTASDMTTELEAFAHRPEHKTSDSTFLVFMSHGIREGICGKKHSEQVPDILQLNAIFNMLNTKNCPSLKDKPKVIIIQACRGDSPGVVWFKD
T1 sequence (P29466 317-404 limits assumed): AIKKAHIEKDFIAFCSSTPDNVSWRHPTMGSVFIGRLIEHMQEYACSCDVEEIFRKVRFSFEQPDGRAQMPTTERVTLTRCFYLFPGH

B1: HUWE1 2251-2340: 90-aa human peptidome tile of HUWE1 displayed on T7 phage (protein, UniProt Q7Z6Z7 2251-2340, looked up, fragment)
chain: ETLSRIVNQPSSLFGSKSASSKNKSEQDAQGASQDSSSNQQDPGEPGEAEVQEEDHDVTQTEVADGDIMDGEAETDSVVIAGQPEVLSSQ
modifications: displayed on T7 phage
B2: ZNF469 811-900: 90-aa human peptidome tile displayed on T7 phage (protein, UniProt Q96JG9 811-900, looked up, fragment)
chain: PLRTGFLPSLAATPFPLPASDLDMEDDAKLDSLITEALNGMEYQSDNPEIDSSFIDVFADEEPSGPRGPSSGHPLKSKAGVTPESKAPPP
modifications: displayed on T7 phage
B3: hoxa2 271-360: 90-aa human peptidome tile displayed on T7 phage (protein, UniProt O43364 271-360, looked up, fragment)
chain: SFPVSPLTSNEKNLKHFQHQSPTVPNCLSTMGQNCGAGLNNDSPEALEVPSLQDFSVFSTDSCLQLSDAVSPSLPGSLDSPVDISADSLD
modifications: displayed on T7 phage
B4: BSN 631-720: 90-aa human peptidome tile displayed on T7 phage (protein, UniProt Q9UPA5 631-720, looked up, fragment)
chain: ATPKVKSGVRRAEPATPVVKAVPEAPKGGEAEDLVGKPYSQDASRSPQSLSDTGYSSDGISSSQSEITGVVQQEVEQLDSAGVTGPHPPS
modifications: displayed on T7 phage
B5: Znf462 1-90: 90-aa human peptidome tile displayed on T7 phage (protein, UniProt Q96JM2 1-90, looked up, fragment)
chain: MEVLQCDGCDFRAPSYEDLKAHIQDVHTAFLQPTDVAEDNVNELRCGSVNASNQTEVEFSSIKDEFAIAEDLSGQNATSLGTGGYYGHSP
modifications: displayed on T7 phage
B6: Hyls1 1-90: 90-aa human peptidome tile displayed on T7 phage (protein, UniProt Q96M11 1-90, looked up, fragment)
chain: MEELLPDGQIWANMDPEERMLAAATAFTHICAGQGEGDVRREAQSIQYDPYSKASVAPGKRPALPVQLQYPHVESNVPSETVSEASQRLR
modifications: displayed on T7 phage
B7: HUWE1 2341-2430: 90-aa human peptidome tile of HUWE1 displayed on T7 phage (protein, UniProt Q7Z6Z7 2341-2430, looked up, fragment)
chain: EMQVENELEDLIDELLERDGGSGNSTIIVSRSGEDESQEDVLMDEAPSNLSQASTLQANREDSMNILDPEDEEEHTQEEDSSGSNEDEDD
modifications: displayed on T7 phage
B8: MAP3K14 496-585: 90-aa human peptidome tile displayed on T7 phage (protein, UniProt Q99558 496-585, looked up, fragment)
chain: LGQALEGLEYLHSRRILHGDVKADNVLLSSDGSHAALCDFGHAVCLQPDGLGKSLLTGDYIPGTETHMAPEVVLGRSCDAKVDVWSSCCM
modifications: displayed on T7 phage
B9: TNS3 451-540: 90-aa human peptidome tile displayed on T7 phage (protein, UniProt Q68CZ2 451-540, looked up, fragment)
chain: YSGTRHVVPAQVHVNGDAALKDRETDILDDEMPHHDLHSVDSLGTLSSSEGPQSAHLGPFTCHKSSQNSLLSDGFGSNVGEDPQGTLVPD
modifications: displayed on T7 phage
B10: AIRLANSTASVSRGSMQELDMLAGLRRSHAPQSRSSLNAKPHDSLDLNCDSRDFVAAIISIPTPPANTPDESQPSSPGGGGRAGSTLRNS (protein, listed as Homo sapiens)
chain: AIRLANSTASVSRGSMQELDMLAGLRRSHAPQSRSSLNAKPHDSLDLNCDSRDFVAAIISIPTPPANTPDESQPSSPGGGGRAGSTLRNS

One experiment has as its target T1, Caspase-1. Briefly: SEPARATE assay: human peptidome library digest with Caspase-1. In kind it is biochemical. Conditions: top 20 enriched peptides, human library (90-aa tiles); normalized read counts digest vs mock digest. As for the experimental part:
(§1) Streptavidin-coupled magnetic beads (Dynabeads M-280 Streptavidin, ThermoFisher Scientific) were washed (TBS, pH 7.4, 0.01% NP40) and resuspended in binding buffer (TBS, pH 7.4, 0.001% NP40) containing 2E9 plaque forming units per 10 μl of bead slurry. End-over-end mixing at room temperature was performed for one hour. Phage-coated beads were washed three times with wash buffer and transferred into two protein LoBind Eppendorf tubes blocked with TBS, pH 7.4 containing 1% BSA.
(§2) Digestion occurred overnight at room temperature with end-over-end rotation. […] To remove any residual biotinylated phage that may have been nonspecifically released, the 150 μl supernatant of the quenched digest reaction is then incubated with a fresh 10 μl of slurry volume M280 streptavidin beads (pre-washed three times with wash buffer) in a LoBind Eppendorf tube blocked with TBS, pH 7.4 containing 1% BSA at room temperature for one hour with end-over-end rotation.
(§3) 10 μl slurry volume of protein G magnetic dynabeads were washed in buffer (TBS, pH 7.4, 0.01% NP40) and then resuspended in 50 μl TBS, pH 7.4, 0.01% NP40 containing 4 μg of M2 FLAG antibody for thirty minutes at room temperature with end-over-end rotation. The 150 μl quenched digest reaction is added to the 10 μl FLAG-coated Protein G beads and incubated for 60 minutes at room temperature with end-over-end rotation to capture phage particles released at the protease digest step. Beads are rinsed once with 100 μl wash buffer and stored at −80° C. until PCR amplification.
(§4) Library PCR preparation, high-throughput DNA sequencing, and peptide read count data generation was performed as described previously.^44 Briefly, library peptide inserts are amplified by resuspending 10 μl of FLAG-coated Protein G beads in PCR1 master mix containing the T7-Pep2_PCR1_F forward primer ([…]) (SEQ ID NO:3) and a T7-SEPARATE vector specific reverse primer ([…]) (SEQ ID NO:4), which includes an adapter sequence for sample-specific barcoding and Illumina P7 adapter incorporation during a subsequent PCR2 reaction. The PCR2 amplicons are pooled and sequenced using an Illumina NextSeq instrument in standard output mode to obtain single-end 50 nucleotide reads. Dual indexed sample demultiplexing and clonal read count determination were performed using exact sequence matching. […] To calculate the normalization factor, 100 peptides were randomly selected from the mock digest conditions with a read count ranging between 10 and 40. The median read count value for these 100 peptides is calculated for each sample. The random peptide selection and median calculation is performed 20 times and the average of the 20 median values is calculated for each sample. Finally, the normalization factor is calculated by dividing the average median value for each sample by that for one of the mock digest conditions. Read counts are then converted to normalized read counts by dividing each sample's read count values by the normalization factor. Fold enrichments are calculated for each peptide by dividing their normalized read counts in the digest condition by the normalized read counts in the mock digest condition. The fold enrichments can be visualized in an MA plot by transforming the normalized read count data into a log ratio (M, on the y-axis) and a mean average (A, on the x-axis) between the digest and mock digest conditions.
Consider B1, for which the Caspase1 fold change is reported as 17.58 fold.

Consider B2, for which the Caspase1 fold change is 16.76 fold.

Turning to B3, the Caspase1 fold change was determined as 17.06 fold.

Take B4: the Caspase1 fold change turned out to be 18.78 fold.

As for B5, the Caspase1 fold change came out at 19.1 fold.

In turn, B6 gave a Caspase1 fold change of 19.74 fold.

B7 gave a Caspase1 fold change of 16.55 fold.

Take B8: the Caspase1 fold change was found to be 16.5 fold.

The molecule B9 showed a Caspase1 fold change of 18.67 fold.

For the next experiment, the target named is T2, ADAM17 (Homo sapiens, UniProt P78536).
T2 construct: purchased RnD Systems
T2 sequence (P78536 215-824): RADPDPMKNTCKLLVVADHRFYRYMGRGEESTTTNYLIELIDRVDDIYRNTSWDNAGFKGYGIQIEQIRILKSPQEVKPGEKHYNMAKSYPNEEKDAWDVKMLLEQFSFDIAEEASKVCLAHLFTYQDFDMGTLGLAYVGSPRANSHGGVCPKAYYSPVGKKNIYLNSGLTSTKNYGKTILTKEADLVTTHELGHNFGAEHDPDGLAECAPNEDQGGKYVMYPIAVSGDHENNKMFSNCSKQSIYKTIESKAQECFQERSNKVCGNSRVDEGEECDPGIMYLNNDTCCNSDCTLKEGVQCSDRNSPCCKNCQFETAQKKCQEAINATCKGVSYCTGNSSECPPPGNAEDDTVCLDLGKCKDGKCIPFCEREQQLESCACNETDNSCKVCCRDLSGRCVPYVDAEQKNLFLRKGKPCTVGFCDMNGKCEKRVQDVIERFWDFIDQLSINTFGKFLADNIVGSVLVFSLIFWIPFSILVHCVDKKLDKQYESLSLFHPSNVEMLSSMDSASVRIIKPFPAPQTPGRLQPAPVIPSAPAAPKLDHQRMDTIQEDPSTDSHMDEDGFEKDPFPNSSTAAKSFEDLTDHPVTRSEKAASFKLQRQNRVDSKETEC
Kind of experiment: SEPARATE assay: human peptidome library digest with ADAM17. As to conditions: top 20 enriched peptides, human library (90-aa tiles); digest vs mock digest. In kind it is biochemical. As for the experimental part:
as §1, §2, §3, §4
As to B10, the “Adam17 Fold Change” value is on record as 57.97 fold.
